From publication PMC6222848, “Spatial Overlap of Claudin- and Phosphatidylinositol Phosphate-Binding Sites on the First PDZ Domain of Zonula Occludens 1 Studied by NMR” (Molecules : A Journal of Synthetic Chemistry and Natural …, 2018) come the findings set out here.

Sequences and labels used below:
B1: GST-tagged mouse ZO-1(PDZ1) (residues 18–110) [mouse] / His6-tagged thioredoxin (Trx) fusion protein of mouse CLD-3 C-terminus (Trx-CLD3, residues 210–219) [mouse] (parent)
chain 1: IWEQHTVTLHRAPGFGFGIAISGGRDNPHFQSGETSIVISDVLKGGPAEGQLQENDRVAMVNGVSMDNVEHAFAVQQLRKSGKNAKITIRRKK
chain 2: GTAYDRKDYV

The variants in the experiment derive from B1. Description: SPR. Conditions: with His6-tagged thioredoxin (Trx) fusion protein of mouse CLD-3 C-terminus (Trx-CLD3, residues 210–219) [mouse], read off a plot.
[1] abbreviates: absence of phytic acid (gray bar), parent: 1.2e+03.
Setting [2] is: presence of 10 mM phytic acid (InsP6) (black bar), parent: 530.

For the variant chain 1 R11A, the response is, setting by setting: under setting [1], 340 RU; under setting [2], 78 RU.
The matching figures for chain 1 K80A: 1400 RU and 460 RU.
Taken in the same sequence, the figures for chain 1 K83A were 1300 RU and 480 RU.
